Target: T1, rLiH2A (histone H2A) (Leishmania infantum, UniProt Q9BJC8 1-132)
T1 sequence: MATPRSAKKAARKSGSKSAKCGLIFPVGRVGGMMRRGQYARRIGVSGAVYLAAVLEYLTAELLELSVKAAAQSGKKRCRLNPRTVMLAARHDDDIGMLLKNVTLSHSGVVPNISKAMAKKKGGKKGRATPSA
Assay: ELONA
Settings: protein: recombinant; tags: His (Ni-NTA purified)

B1: AptLiH2A#1 (structured_DNA)
DNA: GCGGATGAAGACTGGTGTTGTGCAATGATTTTTCCGGTTGACCAGGTAGGAATTGTAGGCCCTAAATACGAGCAAC
Binder B1 has a Kd of 0.96 ± 0.17 nM.

B2: AptLiH2A#2 (structured_DNA)
DNA: GCGGATGAAGACTGGTGTGGAGTCTACCCTGTTTTCTAGTCTGCCATCCCTATCCCATGCCCTAAATACGAGCAAC
For B2, the Kd was 1.16 ± 0.28 nM.

— article PMC3804487, “DNA Aptamers Selectively Target Leishmania infantum H2A Protein”
